Patent EP3919091A1

Molecular target: PIF6-SnoopCatcher (SnoopCatcher-mCherry-PIF6(A. thaliana, amino acids: 1-100, Cys9Ser, Cys10Ser)-His6), coupled to 8-arm PEG-SnoopTag (A. thaliana) (UniProt Q8L5W7)
Assay: cell-based or functional assay

UniProt Q8L5W7, sequence (Q8L5W7 other isoform, or with tags, fused parts or gaps C10S C10S): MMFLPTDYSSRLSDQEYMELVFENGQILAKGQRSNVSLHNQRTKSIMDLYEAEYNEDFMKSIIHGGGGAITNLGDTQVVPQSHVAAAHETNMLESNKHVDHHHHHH

PhyB-SpyCatcher (PhyB(A. thaliana, amino acids: 1-651)-SpyCatcher-His6), coupled to 8-arm PEG-SpyTag (from UniProt P14713 1-651)
reversible cross-linking and dissolution cycles (small amplitude oscillatory shear rheology, 660 nm / 740 nm): 5 times
